According to the supplement of paper PMC7877785:
± gives the uncertainty stated by the source.

Assay: self-splicing fitness, log relative to wild type (ln ratio); higher = more splicing; Tetrahymena group I intron in knt gene, E. coli kanamycin selection, DiMSum; sequences stand for … in CUCUCU…GGAGGGAAAAGUUAUCAGGCAUGCACCUGGUAGCUAGUCUUUAAACCAAUAGAUUGCAUCGGUUUAAAAGGCAAGACCGUCAAAUUGCGGGAAAGGGGUCAACAGCCGUUCAGUACCAAGUCUCAGGGGAAACUUUGAGAUGGCCUUGCAAAGGGUAUGGUAAUAAGCUGACGGACAUGGUCCUAACCACGCAGCCAAGUCCUAAGUCAACAGAUCUUCUGUUGAUAUGGAUGCAGUUCACAGACUAAAUGUCGGUCGGGGAAGAUGUAUUCUUCUCAUAAGAUAUAGUCGGACCUCUCCUUAAUGGGAGCUAGCGGAUGAAGUGAUGCAACACUGGAGCCGCUGGGAACUAAUUUGUAUGCGAAAGUAUAUUGAUUAGUUUUGGAGUACUCGUGGUCG
Outline: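 A randomised library covering all eight P1ex-region intron nucleotides was built with the intron in the knt kanamycin-resistance gene on pET-22b(+) and held in E. coli BL21(DE3). Cells were grown overnight at 37°C or 30°C on LB agar, with or without 25 μg/mL kanamycin, plus 100 μg/mL carbenicillin, 50 μM IPTG and 0.2% rhamnose, and pooled colonies were amplicon-sequenced on an Illumina HiSeq 2500. DiMSum fitness is the error-weighted combination of wild-type-normalised replicate fold changes, kanamycin versus none.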

| Sequence | self-splicing fitness (ln) (30 °C) | self-splicing fitness (ln) (37 °C) |
| --- | --- | --- |
| CCUUAGCAAUAUUACGUAAC | -4.41 ± 0.22 | -2.41 ± 0.18 |
| AGGCAGCAAUAUUACGACAC | -1.75 ± 0.18 | -0.221 ± 0.18 |
| CAUGAGCAAUAUUACGUUCG | -1.33 ± 0.13 | -0.161 ± 0.14 |
| GAUCAGCAAUAUUACGCCUA | 0.00222 ± 0.13 | 0.0251 ± 0.12 |
| AGAGAGCAAUAUUACGCCGA | – | -1.55 ± 0.43 |
| GCGAAGCAAUAUUACGUCCU | -0.0766 ± 0.14 | 0.569 ± 0.17 |
| CCCUAGCAAUAUUACGCGGC | -1.47 ± 0.21 | -2.36 ± 0.41 |
| AGCGAGCAAUAUUACGCGGU | – | -2.53 ± 0.32 |
| CUAGAGCAAUAUUACGGGUC | -4.31 ± 0.25 | -3.61 ± 0.39 |
| GGGAAGCAAUAUUACGUCAU | -1.42 ± 0.11 | -0.7 ± 0.13 |
| CAAAAGCAAUAUUACGCACC | -2.48 ± 0.31 | -0.0893 ± 0.26 |
| UUCCAGCAAUAUUACGUUAA | -1.16 ± 0.079 | 0.606 ± 0.093 |
| CUCCAGCAAUAUUACGGCCA | -2.94 ± 0.25 | – |
| UACCAGCAAUAUUACGUUGA | -1.61 ± 0.049 | -0.796 ± 0.062 |
| ACUUAGCAAUAUUACGAUGA | -0.609 ± 0.094 | -1.2 ± 0.1 |
| GUUAAGCAAUAUUACGGUGA | -1.86 ± 0.15 | -1.09 ± 0.12 |
| GGGUAGCAAUAUUACGUCGC | -1.04 ± 0.23 | 0.272 ± 0.21 |
| AGCUAGCAAUAUUACGUCCG | -1.65 ± 0.23 | -0.915 ± 0.21 |

| Sequence | self-splicing fitness (ln) (30 °C) | self-splicing fitness (ln) (37 °C) |
| --- | --- | --- |
| GUGAAGCAAUAUUACGAGUU | -2.5 ± 0.12 | -1.14 ± 0.15 |
| CCGGAGCAAUAUUACGGUCC | -1.43 ± 0.23 | – |
| AGUCAGCAAUAUUACGCUCA | -0.675 ± 0.095 | -0.791 ± 0.12 |
| CUAAAGCAAUAUUACGCUCG | -0.715 ± 0.12 | -0.626 ± 0.15 |
| GGGAAGCAAUAUUACGUUCG | -0.436 ± 0.11 | 0.00472 ± 0.17 |
| GCUCAGCAAUAUUACGCUGU | -1.22 ± 0.073 | -0.159 ± 0.081 |
| GCACAGCAAUAUUACGCUAA | -1.6 ± 0.092 | -0.281 ± 0.089 |
| UAACAGCAAUAUUACGCGGG | -2.44 ± 0.1 | -1.18 ± 0.078 |
| UACUAGCAAUAUUACGGCCA | -0.179 ± 0.15 | 0.376 ± 0.16 |
| UUAGAGCAAUAUUACGCGCA | -0.808 ± 0.12 | -0.112 ± 0.16 |
| GAAUAGCAAUAUUACGGAUU | -0.925 ± 0.053 | -0.4 ± 0.07 |
| CGCCAGCAAUAUUACGUCCA | – | -1.45 ± 0.39 |
| UACAAGCAAUAUUACGGAGG | -3.94 ± 0.22 | -2.03 ± 0.16 |
| AUGUAGCAAUAUUACGCCCU | 0.267 ± 0.097 | 0.0833 ± 0.098 |
| ACAUAGCAAUAUUACGCAUC | -3.98 ± 0.34 | -1.3 ± 0.14 |
| CCACAGCAAUAUUACGUUGA | -3.67 ± 0.17 | -3.31 ± 0.18 |
| GCGAAGCAAUAUUACGGAAC | -2.72 ± 0.21 | -2.28 ± 0.47 |
